Measurements as given in publication PMC4117528.

Experiments:
[1] = target: PhaP from Azotobacter sp. FA8 (Azotobacter sp. FA8); assay: SEC-MALS; 90° static light scattering (PD2010) with differential refractometer in tandem with analytical Superdex 200; 25 µM protein; 20 mM sodium phosphate pH 7.4, 150 mM NaCl, 1 mM DTT; average molecular weight of the oligomer
[2] = SEC; analytical Superdex 200 calibrated with globular proteins; 25 µM protein; 20 mM sodium phosphate, 50 mM NaCl pH 7.3, 1 mM DTT

Substance | stoichiometry N [1] | apparent number of monomers (SEC, globular calibration) [2]
PhaP from Azotobacter sp. FA8 (natural protein) | 4 | 
PhaP from Azotobacter sp. FA8 |  | This molecular weight corresponds to 9 monomers
